Measured values as given in patent publication US20070116702A1, “Survival promoting NCAM binding and MCAM ligand binding compounds” (priority 2001, published 2007).
Where a chain is given by its changes, count along the chain named. No end group written: not given here.

B1: Ig1: Recombinant Ig1 domain of rat NCAM produced in Pichia pastoris (protein)
chain: LQVDIVPSQGEISVGESKFFLCQVAGDAKDKDISWFSPNGEKLSPNQQRISVVWNDDDSSTLTIYNANIDDAGIYKCVVTAEDGTQSEATVNVKIFQ
B2: D4d, tetrameric dendrimer of the D4 peptide (peptide)
peptide: ARALNWGAKPK
modifications: also: tetrameric dendrimer: four monomers coupled to a backbone of three lysines, synthesised on Rink amide linker
notes: Immobilised on a CM5 sensor chip in the BIAlite experiment; also called dendrimer peptide D4d
B3: C3d, tetrameric dendrimer of the C3 peptide (peptide)
peptide: ASKKPKRNIKA
modifications: also: tetrameric dendrimer: four monomers coupled to a backbone of three lysines, synthesised on Rink amide linker
notes: Immobilised on a CM5 sensor chip in the BIAlite experiment; also called dendrimer peptide C3d
B4: D3d, tetrameric dendrimer of the D3 peptide (peptide)
peptide: AKKERQRKDTQ
modifications: also: tetrameric dendrimer: four monomers coupled to a backbone of three lysines, synthesised on Rink amide linker
notes: Immobilised on a CM5 sensor chip in the BIAlite experiment; also called dendrimer peptide D3d
B5: NCAM(20-208) first mutant: Glu-30, Glu-35 and Lys-37 substituted with Ala (receptor, UniProt P13596 20-208, looked up)
chain: LQVDIVPSQGAISVGASAFFLCQVAGDAKDKDISWFSPNGEKLSPNQQRISVVWNDDDSSTLTIYNANIDDAGIYKCVVTAEDGTQSEATVNVKIFQKLMFKNAPTPQEFKEGEDAVIVCDVVSSLPPTIIWKHKGRDVILKKDVRFIVLSNNYLQIRGIKKTDEGTYRCEGRILARGEINFKDIQVIV
B6: NCAM(20-208) third mutant: Glu-30, Glu-35, Lys-37, Arg-192, Arg-196 and Glu-198 substituted with Ala (receptor, UniProt P13596 20-208, looked up)
chain: B5 chain with R173A, R177A, E179A
B7: NCAM(20-208) second mutant: Arg-192, Arg-196 and Glu-198 substituted with Ala (receptor, UniProt P13596 20-208, looked up)
chain: B5 chain with A11E, A16E, A18K, R173A, R177A, E179A

The molecules below were run on Hippocampal cells (assay: Aggregate cell cultures of hippocampal cells (aggregates counted after 24 h)). Conditions: ligand present during the aggregation of cells; quantified 24 h after seeding.
Type: cell-based, rat
Experimental: A variety of suitable fragments and variants of NCAM has been discussed above. To be able to identify candidate ligands capable of stimulating NCAM function, where the NCAM function means the function of the NCAM molecule, the inventors have established a simple cell culture system (aggregate cell cultures) that permits a quantitative evaluation of the effect of various ligands. Hippocampal cells are provided from rat embryos. The cells are grown in a defined medium and dissociated cells are seeded in microtiter plates. After 24 h, the, amount of aggregates are counted. Compounds to be tested are added to the cell suspension immediately before seeding of the cells in micro-wells. When NCAM Ig1 binding ligands are present during the aggregation of cells, smaller, but more numerous cell aggregates are seen when quantified 24 h after seeding of the cells. The inhibiting effect of the ligands results in a blockage of the formation of large aggregates from many small aggregates as the adhesion, properties of NCAM are blocked. Thus, small but more numerous cell aggregates are seen in the presence of active ligands.
“GRILARGEINFK (listed as Homo sapiens) [Ig2-p]” was tested, and the “inhibition of aggregation of hippocampal cells” value (“inhibition” for short) was “inhibited aggregation”.
“GEISVGESKFFL (listed as Homo sapiens) [Ig1-p]” was tested, and the “inhibition” value was “inhibited aggregation”.
In the case of “ARALNWGAKPK (listed as Homo sapiens) [D4]”, the “inhibition” value is reported as “inhibited aggregation”.
“AKKERQRKDTQ (listed as Homo sapiens) [D3]” was tested, and the “inhibition” value was “inhibited aggregation”.
B1 was tested, and the “inhibition” value was “inhibited aggregation”.

The molecules below were run against T1, recombinant NCAM Ig1 domain produced in Pichia pastoris (Ig1 PP) (rat, UniProt P13596 20-116, limits assumed) (assay: SPR (BIAlite), dendrimer peptide immobilised on CM5 chip, Ig1 in solution). Conditions: not given.
T1 construct: domain: Ig1; unlabelled analyte in the BIAlite experiment; also called NCAM Ig1-PP
Experimental: Real-time biomolecular interaction analysis was performed using a BIAlite instrument (Pharmacia Biosensor AB, Sweden). All experiments were performed at 25° C. using Hepes buffered saline (HBS: 10 mM Hepes pH 7.4, 150 mM NaCl, 3.4 mM EDTA, 0.005% v/v Surfactant P20 (Pharmacia Biosensor, Sweden) as running buffer. The flow rate was […]. Dendrimer peptides C3d, D3d and D4d (four peptide-monomers coupled to a backbone consisting of three lysines) were immobilised on a sensor chip CM5 (Pharmacia Biosensor AB, Sweden) using the following procedure: the chip was activated by […] 0.05 M N-hydroxysuccinimide, 0.2 M N-ethyl-N′-(dimethylaminopropyl)carbodiimide; peptides were immobilised using […] peptide solution in HBS at a concentration of 60 μg/ml; finally the chip was blocked by 35 μl 1 M ethanolamine hydrochloride pH 8.5. Binding of Ig1 to dendrimer peptides: […] of Ig1 or Ig1I at the indicated concentrations were applied. The chip was regenerated by two […] pulses of 5 mM NaOH. Two independent experiments were performed. The results confirmed that C3d, D3d and D4d bind to the NCAM Ig1 domain.
B2: binds.
B3: binds.
B4: binds.

Biological target: the molecule itself
Experiment: gel filtration chromatography, homophilic dimer formation
Conditions: not given
B5: no binding.
B6: no binding.
B7: no binding.

Each molecule was assayed against T1, recombinant NCAM Ig1 domain produced in … (assay: one-bead one-peptide library stained with biotinylated NCAM Ig1). Conditions: not given.
Experimental: The synthesis of the resin-bound one-bead one-peptide library was performed using the portioning, mix procedure (Furka et al., 1991). Polyethylene syringes served as reaction vessels throughout the synthesis and the final TFA-deprotection. TentaGel resin (Rapp Polymere, Tübingen, Germany) was divided into 18 aliquots and the protein L-amino acids except cysteine and histidine were used. Side-chains were protected with the following protecting groups: Asp(tBu), Glu(tBu), Tyr(tBu), Ser(tBu), Thr(tBu), Asn(trt), Gln(trt), Lys(Boc), Trp(Boc), Arg(pmc). Fmoc-protected amino acids (5 eq; Milligen or Novabiochem) were coupled overnight using 5eq DIC and 5eq HOBt. Removal of the Fmoc group was accomplished with 25% piperidine in DMF for 20 min. The side chain protecting groups were removed with […], 5% anisole, 5% H₂O, 5% EDT, 2.5% thioanisole at mom temperature for 2.5 h followed by washing with tetrahydrofuran and 1% HOAc and the resin was subsequently lyophilised. Screenings were done by incubating 2 ml resin (equivalent to ca. 10⁶ beads) with biotinylated receptor in Tris/HCl buffer (Tris/HCl 0.025 M, pH 7.2, 0.25 M NaCl, 0.1 % (w/v) Tween 20) containing 0.1% Gelatin (Sigma) for 60 min. Subsequently the resin was washed in Tris/HCl buffer and incubated with avidin-alkaline phosphatase (diluted 1:20000) for 30 min. The substrates BCIP/NBT (Sigma) were added as described by Lam et al. (1992) and stained beads were removed for micro sequencing. The library was screened with the receptor NCAM Ig1-PP (10 mg/ml).
AKKERQRKDTQ [D3 peptide (SEQ ID NO:2)]: binds.
AEGGKKKKMRA [SEQ ID NO 19]: binds.
AYYLIVRVNRI [SEQ ID NO 8]: binds.
AKKKEQKQRNA [SEQ ID NO 20]: binds.
ASKKPKRNIKA [C3 peptide (SEQ ID NO:1)]: binds.
ASTKRSMQGI [SEQ ID NO 6]: binds.
ARALNWGAKPK [D4 peptide (SEQ ID NO:3)]: binds.
AKKEKPNKPND [SEQ ID NO 17]: binds.
ARKTRERKSKD [SEQ ID NO 14]: binds.
AKRSVQKLDGQ [SEQ ID NO 11]: binds.
APKLDRMLTKK [SEQ ID NO 16]: binds.
ATNKKTGRRPR [SEQ ID NO 9]: binds.
AQMGRQSIDRN [SEQ ID NO 18]: binds.
AKYVLIPIRIS [SEQ ID NO 5]: binds.
AGSAVKLKKKA [SEQ ID NO 4]: binds.
AGDYNPDLDR [SEQ ID NO 13]: binds.
AKRNGPLINRI [SEQ ID NO 10]: binds.
AKSRKGNSSLM [SEQ ID NO 21]: binds.
ASQAKRRKGPR [SEQ ID NO 15]: binds.
ARKSRDMTAIK [SEQ ID NO 22]: binds.
ARQKTMKPRRS [SEQ ID NO 12]: binds.
